Laboratory results published in patent publication US20210009982.

Biological target: T1, mini cellulose-binding protein A (mCbpA), P38058
T1 chain: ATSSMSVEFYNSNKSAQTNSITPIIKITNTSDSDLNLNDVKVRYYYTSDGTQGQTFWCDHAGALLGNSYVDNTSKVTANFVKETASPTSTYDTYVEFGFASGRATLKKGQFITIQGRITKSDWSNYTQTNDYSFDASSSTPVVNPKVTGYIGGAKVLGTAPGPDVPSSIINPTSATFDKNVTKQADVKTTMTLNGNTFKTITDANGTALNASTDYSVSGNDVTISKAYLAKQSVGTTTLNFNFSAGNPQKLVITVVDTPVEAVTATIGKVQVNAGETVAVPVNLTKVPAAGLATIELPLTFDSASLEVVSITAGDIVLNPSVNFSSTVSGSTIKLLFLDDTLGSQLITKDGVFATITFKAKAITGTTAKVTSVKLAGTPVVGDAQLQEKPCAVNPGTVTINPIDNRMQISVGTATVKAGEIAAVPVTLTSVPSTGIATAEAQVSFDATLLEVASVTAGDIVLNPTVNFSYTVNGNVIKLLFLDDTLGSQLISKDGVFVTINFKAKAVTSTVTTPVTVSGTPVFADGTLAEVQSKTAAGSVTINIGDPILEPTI

B1: arabinose isomerase (LsAraA) linked with the dockerin module of the endo-β-1,4-glucanase B gene (protein)
chain: SLSARVSFKKHVKKGVFIMLNTENYEFWFVTGSQSLYGEETLRSVEKDAKEIVEKLNASRQLPYPIVFKLVATTADNITKVMKEANYNDHVAGVITWMHTFSPAKNWIRGTKLLQKPLLHLATQFLNKIPYDTIDFDYMNLNQSAHGDREYAFINARLRKNNKIISGYWGDEDVQKAMAKWMDVAVAYNESFKIKVVTFADKMRNVAVTDGDKVEAQIKFGWTVDYWGVGDLVAEVNAVSEADIDAKYADLQKEYDFVEGQNTPEKFEHNVKYQIREYFGLKKFMDDRGYTAFTTNFEDLVGLEQLPGLAAQLLMAEGYGFAGEGDWKTAALDRLLKIMAHNEKTVFMEDYTLDLRQGHEAILGSHMLEVDPSIASDKPRVEVHPLDIGDKDDPARLVFTGMQGDAVDVTMADYGDEFKLMSYDVRGNKPEADTPHLPVAKQLWTPKQGLREGAVGWLTVGGGHHTVLSFAVDSEQLQDLSHLFDLTYVNIKTQTQTSYSLGDVNKDGKVNAIDYAVLKSILLGTNTNVDLSVSDMNKDGKVNALDLAVLKKMLLS
tagatose conversion activity using galactose as a substrate: the degradation activity was increased in the order of mCbpA (M), arabinose isomerase (LsAraA, L) and arabinose isomerase-mCbpA (LM)
